Laboratory results: paper PMC10365013 (2022)

How the values were obtained:
PP1CA-KRAS = PP1CA-KRAS (Homo sapiens, UniProt P62136); experiment: SPR
PP1CA-HRAS = PP1CA-HRAS (Homo sapiens, UniProt P62136); experiment: SPR
PP1CA-NRAS = PP1CA-NRAS (Homo sapiens, UniProt P62136); experiment: SPR
PP1CA-MRAS = PP1CA-MRAS (Homo sapiens, UniProt P62136); experiment: ITC

- Kd (PP1CA-KRAS): 0.7 µM
- Kd (PP1CA-HRAS): 2 µM
- Kd (PP1CA-NRAS): 4 µM
- Kd (PP1CA-MRAS): ~0.35 µM
B1: SHOC2 (protein)
chain: MSSSLGKEKDSKEKDPKVPSAKEREKEAKASGGFGKESKEKEPKTKGKDAKDGKKDSSAAQPGVAFSVDNTIKRPNPAPGTRKKSSNAEVIKELNKCREENSMRLDLSKRSIHILPSSIKELTQLTELYLYSNKLQSLPAEVGCLVNLMTLALSENSLTSLPDSLDNLKKLRMLDLRHNKLREIPSVVYRLDSLTTLYLRFNRITTVEKDIKNLSKLSMLSIRENKIKQLPAEIGELCNLITLDVAHNQLEHLPKEIGNCTQITNLDLQHNELLDLPDTIGNLSSLSRLGLRYNRLSAIPRSLAKCSALEELNLENNNISTLPESLLSSLVKLNSLTLARNCFQLYPVGGPSQFSTIYSLNMEHNRINKIPFGIFSRAKVLSKLNMKDNQLTSLPLDFGTWTSMVELNLATNQLTKIPEDVSGLVSLEVLILSNNLLKKLPHGLGNLRKLRELDLEENKLESLPNEIAYLKDLQKLVLTNNQLTTLPRGIGHLTNLTHLGLGENLLTHLPEEIGTLENLEELYLNDNPNLHSLPFELALCSKLSIMSIENCPLSHLPPQIVAGGPSFIIQFLKMQGPYRAMV
modifications: GMPPNP
